From patent US6506592 (BOARD OF REGENTS OF THE UNIVERSITY OF NEBRASKA, dated 2003) come the findings set out here.

The target of this assay is T1, Staphylococcus protein A (Staphylococcus, UniProt P38507 37-477).
T1 construct: Used to remove antibody-antigen complexes in the immunoprecipitation
As to the kind of experiment: immunoprecipitation from T2 plant MI52E extract; residual alpha-glucosidase activity in the supernatant.

Protocol: Tobacco leaf extracts to be used for detection of glycosyl hydrolase antigens were concentrated 3-fold by (NH_4)_2 SO_4 precipitation. […] Proteins (Amersham) were transferred to nitrocellulose and incubated. […] Concentrated plant protein extracts were diluted 1:10 in 10 mM tris-Cl pH 7.0. 50 ul of anti-malA antibodies were added to 200 ul of diluted extract and incubated for 2 hours at 4° C. with gentle agitation. […] Blots were soaked with a chemiluminescent substrate solution (Amersham) and results visualized by autoradiography and quantified by densitometry.
The residual activity remaining in the treated samples was then determined by enzyme assay.

B1: Sulfolobus solfataricus alpha-glucosidase (malA protein), recombinant (enzyme)
chain: MQTIKIYENKGVYKVVIGEPFPPIEFPLEQKISSNKSLSELGLTIVQQGNKVIVEKSLDLKEHIIGLGEKAFELDRKRKRYVMYNVDAGAYKKYQDPLYVSIPLFISVKDGVATGYFFNSASKVIFDVGLEEYDKVIVTIPEDSVEFYVIEGPRIEDVLEKYTELTGKPFLPPMWAFGYMISRYSYYPQDKVVELVDIMQKEGFRVAGVFLDIHYMDSYKLFTWHPYRFPEPKKLIDELHKRNVKLITIVDHGIRVDQNYSPFLSGMGKFCEIESGELFVGKMWPGTTVYPDFFREDTREWWAGLISEWLSQGVDGIWLDMNEPTDFSRAIEIRDVLSSLPVQFRDDRLVTTFPDNVVHYLRGKRVKHEKVRNAYPLYEAMATFKGFRTSHRNEIFILSRAGYAGIQRYAFIWTGDNTPSWDDLKLQLQLVLGLSISGVPFVGCDIGGFQGRNFAEIDNSMDLLVKYYALALFFPFYRSHKATDGIDTEPVFLPDYYKEKVKEIVELRYKFLPYIYSLALEASEKGHPVIRPLFYEFQDDDDMYRIEDEYMVGKYLLYAPIVSKEESRLVTLPRGKWYNYWNGEIINGKSVVKSTHELPIYLREGSIIPLEGDELIVYGETSFKRYDNAEITSSSNEIKFSREIYVSKLTITSEKPVSKIIVDDSKEIQVEKTMQNTYVAKINQKIRGKINLE
notes: 693 amino acids, 80.5 kDa subunit; Assayed as produced in transgenic tobacco (T2 plant MI52E extract) and as an E. coli-derived positive control; both come from the same malA coding region; also called malA polypeptide; recombinant alpha-glucosidase
With B1, the binding result was “no binding”.
